# T1: MLO-Y4 cell surface proteins (Mus musculus, UniProt P59242)
# T1 construct: endogenous in cells; host or cells: MLO-Y4
# T1 sequence (P59242 1-1191): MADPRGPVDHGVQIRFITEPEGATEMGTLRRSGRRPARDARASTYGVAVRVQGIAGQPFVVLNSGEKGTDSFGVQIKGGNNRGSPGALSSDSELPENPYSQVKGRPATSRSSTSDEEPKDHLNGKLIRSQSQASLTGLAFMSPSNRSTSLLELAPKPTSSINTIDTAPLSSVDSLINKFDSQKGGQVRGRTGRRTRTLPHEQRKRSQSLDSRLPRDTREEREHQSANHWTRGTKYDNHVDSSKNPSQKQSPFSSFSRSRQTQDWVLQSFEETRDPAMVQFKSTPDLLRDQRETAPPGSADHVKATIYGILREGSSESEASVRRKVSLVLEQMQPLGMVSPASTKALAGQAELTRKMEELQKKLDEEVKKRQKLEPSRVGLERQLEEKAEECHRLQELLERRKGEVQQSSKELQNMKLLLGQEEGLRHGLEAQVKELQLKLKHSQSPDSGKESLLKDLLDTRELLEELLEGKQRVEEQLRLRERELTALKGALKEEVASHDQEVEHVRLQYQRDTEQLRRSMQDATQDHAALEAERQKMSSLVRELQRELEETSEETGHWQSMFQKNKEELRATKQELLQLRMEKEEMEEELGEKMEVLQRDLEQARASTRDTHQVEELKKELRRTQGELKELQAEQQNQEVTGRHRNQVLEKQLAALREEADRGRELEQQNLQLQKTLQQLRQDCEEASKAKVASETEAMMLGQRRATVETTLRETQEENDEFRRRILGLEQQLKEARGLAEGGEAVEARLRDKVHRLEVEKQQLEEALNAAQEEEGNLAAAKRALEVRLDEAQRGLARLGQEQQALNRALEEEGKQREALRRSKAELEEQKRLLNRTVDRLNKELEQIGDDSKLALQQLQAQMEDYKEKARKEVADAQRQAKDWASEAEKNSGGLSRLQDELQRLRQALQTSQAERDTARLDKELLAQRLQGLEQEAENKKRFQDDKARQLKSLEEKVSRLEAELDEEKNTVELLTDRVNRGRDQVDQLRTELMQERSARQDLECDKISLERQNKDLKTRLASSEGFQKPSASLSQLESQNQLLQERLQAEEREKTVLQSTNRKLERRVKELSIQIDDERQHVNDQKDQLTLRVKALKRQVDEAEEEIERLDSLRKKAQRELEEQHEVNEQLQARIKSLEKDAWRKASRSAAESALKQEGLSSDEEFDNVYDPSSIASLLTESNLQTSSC
# Biological target: T1, MLO-Y4 cell surface proteins
# Assay: Crosslinking/co-immunoprecipitation/mass spectrometry (TMT quantitative proteomics) to identify irisin receptors
# Format: binding
# Conditions: co-precipitated protein Cgn (CING_MOUSE)
# Summary of the method: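 Relative protein abundance came from 6-plex TMT MS3 quantitation on an Orbitrap Fusion Lumos, after in-gel trypsin digestion of Coomassie-stained SDS-PAGE lanes. Input was a Ni-NTA pulldown (250 mM imidazole elution) of lysates from murine MLO-Y4 cells. These cells were treated on ice with His-tagged irisin or adipsin (10 nM, 20 min) in serum-free medium, then crosslinked with 1.5 mM DTSSP for 30 min.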
molecule,measurement,value
"irisin: secreted cleaved form of FNDC5; recombinant human/mouse irisin with C-terminal his tag produced in HEK293 cells (protein, left off: small tags and cut ends, secreted cleaved form of FNDC5; recombinant human/mouse irisin with C-terminal his tag produced in HEK293 cells) DSPSAPVNVTVRHLKANSAVVSWDVLEDEVVIGFAISQQKKDVRMLRFIQEVNTTTRSCALWDLEEDTEYIVHVQAISIQGQSPASEPVLFKTPREAEKMASKNKDEVTMKE",TMT signal-to-noise ratio,16.0255
same,irisin/adipsin TMT signal-to-noise ratio,0.080

# Reference: US20210063414A1, “METHODS FOR PREVENTING AND/OR TREATING BONE LOSS CONDITIONS BY MODULATING IRISIN” (Dana-Farber Cancer Institute, Inc., priority 2018, published 2021)
